Measurements from patent US20260209387A1, “SINGLE-DOMAIN ANTIBODY FOR INHIBITION OF NEUTROPHIL ELASTASE ACTIVITY” (UNIVERSITE DE LIEGE, priority 2023, published 2026).

T1: hNE (Homo sapiens, UniProt P08246)
T1 construct: purchased Elastin Products Company (EPC)
T1 sequence (P08246 30-247): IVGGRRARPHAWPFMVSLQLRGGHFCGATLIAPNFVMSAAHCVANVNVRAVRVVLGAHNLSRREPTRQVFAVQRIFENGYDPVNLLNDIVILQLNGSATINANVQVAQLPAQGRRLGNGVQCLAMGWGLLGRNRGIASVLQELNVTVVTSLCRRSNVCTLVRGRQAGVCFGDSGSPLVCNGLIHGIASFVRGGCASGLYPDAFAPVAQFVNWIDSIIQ

B1: NbE201: anti-hNE ISVD (VHH/nanobody) from immunized lama, amino acid sequence SEQ ID NO: 4 (protein)
VHH: QVQLQESGGGLVQAGGSLRLSCVVPGRTISLYRMGWFRQAPGKEREFVAGINWSGDMTDYVDSVKGRFTISRDNAKNTVYLEMNSLKPEDTAIYYCTADPKLLPLADSSYGYWGQGTQVTVSS
B2: NbE201-PEG40: NbE201-Cter conjugated via C-terminal cysteine to branched 40 kDa PEG-maleimide (conjugate)
VHH: QVQLQESGGGLVQAGGSLRLSCVVPGRTISLYRMGWFRQAPGKEREFVAGINWSGDMTDYVDSVKGRFTISRDNAKNTVYLEMNSLKPEDTAIYYCTADPKLLPLADSSYGYWGQGTQVTVSSSPSTPPTPSPSTPPC

Experiments:
[1] = Physical stress (nebulization, agitation, freeze/thaw): concentration by A280 nm before/after centrifugation; type: physicochemical; conditions: for Initial concentration percentage after centrifugation: 10 000 g 10 min
Procedure: A 0.25 mg/ml solution of NbE201, NbE201-PEG10 or NbE201-PEG40 was prepared and divided in order to apply the following conditions: control, 1 or 4 h of agitation with a magnetic bar, nebulization, 5 or 10 freeze/thaw cycles.
2.3.1 Stability towards agitation. 100 μl of a 0.25 mg/ml ISVDs solution were agitated in a 1 ml glass vial with a 2×5 mm magnetic bar (VWR, Radnor, USA) at 200 rpm during 1 or 4 hours.
2.3.2 Stability towards Nebulization. 300 μl of a 0.25 mg/ml ISVDs solution were nebulized with a MeSH nebulizer (InnoSpire Go, Phillips, Amsterdam, The Netherlands).
2.3.3 Stability towards freezing/thawing. 100 μl of a 0.25 mg/ml ISVDs solution underwent 5 or 10 freeze/thaw (F/T) cycles. Freezing was performed in a −20° C. freezer and thawing was performed at RT.
2.3.4 Concentration measurements. Concentrations and UV spectra were measured by spectrophotometry (NanoDrop 2000/2000c spectrophotometer, ThermoFisher). Concentrations were determined based on the absorbance at 280 nm. NbE201 and NbE201-Cter mass extinction coefficients applied to the measurements were 1.888 and 1.716 (mg/mL)^−1 cm^−1 respectively. Regarding the ISVDs exposed to physical stresses, the concentration was read before and after centrifugation at 10 000 g at 4° C. for 10 min.

hNE [2] = target: T1, hNE; assay: Spray-dried powder: hNE inhibition after solubilizing; type: biochemical; conditions: [hNE]:[ISVD] 1:1
Procedure: (§1) Dry powders for inhalation were formulated with the NbE201 and the NbE201-PEG40. The spray dryer used was the PROCEPT's modular 4M8-Trix.
The inhibitory activity was also assessed after solubilizing the powders. The inhibitory capacity of the Nbs were assessed in an in vitro assay at a [hNE]:[ISVD] ratio of 1:1. The inhibition capacity of the solubilized powders was compared to the inhibition capacity of their respective controls (eg. untreated NbE201 or NbE201-PEG40). […] The protein concentration used to calculate the hNE: ISVD ratio was the concentration read after centrifugation.

[3] = Spray-dried powder: concentration before/after centrifugation; type: physicochemical; conditions: spray-dried powder solubilized and dialysed; 10 000 g ten minutes
Procedure: as §1
The integrity of the ISVD within the spray-dried powders was then evaluated after solubilizing the powders into water followed by a dialysis into phosphate buffer (50 mM, pH7). Protein concentration was measured by reading the absorbance at 280 nm before and after centrifugation at 10 000 g for ten minutes in order to detect the presence of insoluble aggregates.

[4] = Pharmacokinetic study, intratracheal instillation, BAL content by ELISA; type: in vivo, mice
Procedure: 2.5.1. Instillation of mice and collection of BAL. […] Broncho-alveolar lavages (BAL), nasal lavages (NAL), blood samples, and lungs were collected 0, 4 or 24 h after instillation. BAL and NAL were collected with 2 ml and 1 ml of Hanks' Balanced Salt Solution (HBSS) buffer respectively. Cells were discarded from BAL and NAL samples via a 5 min centrifugation at 300 g and supernatants were stored at −20° C. Lungs were collected in 0.5 ml of HBSS buffer, ground (Precellys evolution, Bertin Technologies, Montigny-le-bretonneux, France) and centrifuged at 300 g for 15 min. Supernatants were stored at −20° C. Blood was collected by intra-cardiac puncture and stored in anti-coagulant tubes (Microvette®) 500, K3 EDTA, VWR) at −20° C. All samples were treated with an anti-protease cocktail (Roche).
2.5.2. ELISA analysis. ISVD and AAT content in the BALs collected in vivo were measured by a sandwich ELISA method. An ELISA conversion pack from Meso scale Discovery (Rockville, USA) was used for ISVD analysis, according to the manufacturer instructions. Uncoated Mesoscale compatible plates were coated with an anti-histag antibody (BioLegend, San Diego, USA). ISVDs were then detected with an anti-VHH antibody (Jackson ImmunoResearch, Ely, UK) mixed with an anti-goat Sulfo-TAG labelled antibody (Meso scale Discovery) and the signal was read with an MESO QuickPlex SQ 120 MM (Meso scale Discovery). AAT content in the samples was measured by a commercial ELISA kit (Human Serpin Al DuoSet ELISA, R&D system, Mineapolis, USA) according to manufacturer instructions.

hNE [5] = target: T1, hNE; assay: hNE inhibitory capacity after physical stress; type: biochemical; conditions: hNE: Nb molar ratio 1:1, compared to unexposed ISVD
Procedure: 2.2.1 Evaluation of the proteolytic activity inhibition on purified hNE. hNE activity was assessed by following the degradation of a chromogenic hNE substrate, N-succinyl-alanine-alanine-proline-valine-p-nitroanilide (suc-Ala-Ala-Pro-Val-pNA, Elastin products, Owensville, Missouri, USA), measuring the absorbance at 410 nm with a spectrophotometer (Spectramax ID5, Molecular Devices, San Jose, USA). The substrate was diluted to a concentration of 1.5 mM in a tris buffer (0.1M tris, 0.5M NaCl, 0.01% NaN3, pH 7.5) and 200 μl of this solution were added to the wells of a 96-well plate and heated at 37° C. Purified hNE (Elastin products) was reconstituted on ice in a 0.05M Sodium acetate (NaOAc), 0.1M NaCl buffer at pH5 to a concentration of 0.1 mg/ml. 10 μl of this hNE solution were added per well and the substrate degradation was followed during 20 min to verify the hNE activity in the wells. ISVDswere then added to the wells at the desired hNE: ISVD ratio, and the substrate degradation was then followed during 50 min. Slopes were calculated from the regression line drawn from the absorbance measurements and were expressed as a percentage of the hNE activity without ISVDs. […]

[6] = hNE + Solubilized powder, with aggregates
[7] = hNE + Solubilized powder, without aggregates (after centrifugation)

| hNE Inhibition percentage (hNE [2]; hNE + Control sdAb (untreated)) [%] | hNE Inhibition percentage (hNE [2]; [6]) [%] | hNE Inhibition percentage (hNE [2]; [7]) [%] | Molecule | Initial concentration percentage before centrifugation ([1]; Agitation (1 h)) [%] | Initial concentration percentage after centrifugation ([1]; Agitation (1 h)) | Initial concentration percentage before centrifugation ([1]; Agitation (4 h)) | Initial concentration percentage after centrifugation ([1]; Agitation (4 h)) | Initial concentration percentage before centrifugation ([1]; Control) [%] | Initial concentration percentage after centrifugation ([1]; Control) | Initial concentration percentage before centrifugation ([1]; F/T 5x) [%] | Initial concentration percentage after centrifugation ([1]; F/T 5x) | Initial concentration percentage before centrifugation ([1]; F/T 10x) [%] | Initial concentration percentage after centrifugation ([1]; F/T 10x) | Initial concentration percentage before centrifugation ([1]; Nebulization) | Initial concentration percentage after centrifugation ([1]; Nebulization) | concentration after centrifugation as % of concentration before centrifugation [3] [%] | percentage of the dose collected at time 0 quantified in BAL after 24 h ([4]; Swiss mice) [%] | percentage of the dose collected at time 0 quantified in BAL after 24 h ([4]; β-ENaC mice) [%] | loss of hNE inhibitory capacity after nebulization, agitation or F/T cycles (hNE [5]) |
| --- | --- | --- | --- | --- | --- | --- | --- | --- | --- | --- | --- | --- | --- | --- | --- | --- | --- | --- | --- |
| 76 ± 1 | 48 ± 5 | 78 ± 2 | B1 | 93 ± 4 | 54 ± 12% (****) | 77 ± 6% (**) | 27 ± 19% (****) | 100 ± 0 | 100 ± 0% ^ | 96 ± 8 | 85 ± 10% (*) | 103 ± 5 | 75 ± 9% (**) | 73% ± 3% (***) | 31 ± 2% (****) | 53±3 | 4.4 | 3.3 | the greatest losses were observed with nebulization and 4 h of agitation |
| 70 ± 2 | 67 ± 2 | 72 ± 1 | B2 | 99 ± 1 | 98 ± 1% | 98 ± 1% | 99 ± 1% | 100 ± 0 | 99 ± 1% | 97 ± 2 | 99 ± 1% | 97 ± 2 | 97 ± 3% | 88 ± 3% (****) | 88 ± 3% (****) | 97±2 | 65 | 56 | did not display any significant loss of inhibitory activity |
